In experiment [1] the target is T1, recombinant human IL1RAP protein (human, UniProt Q9NPH3 21-359, limits assumed).
T1 construct: also called recombinant IL1RAP protein; Interleukin-1 receptor accessory protein
Nature of the experiment: method not given.

Another experiment concerns the target T2, CD3 on T cells (Homo sapiens (Human), UniProt P07766 23-207; P04234 22-171; P09693 23-182; P20963 22-164).
T2 construct: also called T cell co-receptor CD3
Nature of the experiment: flow cytometry: T cells incubated with 1D5 in place of the bispecific antibody, then his-tagged recombinant IL1RAP, detection with FITC-anti-his antibody. (A flow cytometer gives signals particle by particle.)

The target in experiment [2] is T1, recombinant human IL1RAP protein. The experiment can be described thus: ELISA; 1 µg/ml recombinant IL1RAP coated; antibody in three-fold dilutions from 1 µg/ml; HRP-anti-human FC detection. For orientation: ELISA stands for enzyme-linked immunosorbent assay.
Experimental: Purified antibodies in three-fold serial dilution starting from 1 μg/ml are added to each well. HRP-anti-human FC antibody is used as detection antibody.
The target is the same in experiment [3]. The experiment can be described thus: SPR, Biacore T100. Background: In SPR one partner is held on a chip, and binding of the other changes the refractive index at the surface.
Experiment [4] has the same target. The experiment can be described thus: ELISA: recombinant IL1RAP protein coated at 1 ug/ml, purified IgG in three-fold serial dilution, HRP-anti-human FC detection, OD450.

The term Kd denotes the constant that tells how readily two partners part at equilibrium. In general, EC50 refers to the concentration needed to bring the measured effect to its halfway point. By EC50 (read off the curve) is commonly meant the concentration giving half of the maximal effect.

T1 sequence (Q9NPH3 21-359 limits assumed): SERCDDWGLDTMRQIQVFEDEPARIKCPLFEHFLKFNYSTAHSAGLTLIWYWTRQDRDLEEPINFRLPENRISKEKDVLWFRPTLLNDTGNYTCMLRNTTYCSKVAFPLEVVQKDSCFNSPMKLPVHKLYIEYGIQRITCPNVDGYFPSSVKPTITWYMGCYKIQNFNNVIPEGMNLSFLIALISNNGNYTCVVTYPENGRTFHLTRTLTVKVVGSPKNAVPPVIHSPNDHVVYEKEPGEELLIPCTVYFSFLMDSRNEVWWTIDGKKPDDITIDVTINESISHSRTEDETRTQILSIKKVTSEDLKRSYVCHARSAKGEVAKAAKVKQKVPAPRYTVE
T2 sequence (P07766 23-207 limits assumed, chain 1 of 4): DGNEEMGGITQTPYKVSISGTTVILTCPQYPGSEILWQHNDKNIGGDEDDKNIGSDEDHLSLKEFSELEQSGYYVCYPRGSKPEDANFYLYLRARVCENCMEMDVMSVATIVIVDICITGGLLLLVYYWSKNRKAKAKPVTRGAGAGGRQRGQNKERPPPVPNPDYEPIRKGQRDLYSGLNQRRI
T2 sequence (P04234 22-171 limits assumed, chain 2 of 4): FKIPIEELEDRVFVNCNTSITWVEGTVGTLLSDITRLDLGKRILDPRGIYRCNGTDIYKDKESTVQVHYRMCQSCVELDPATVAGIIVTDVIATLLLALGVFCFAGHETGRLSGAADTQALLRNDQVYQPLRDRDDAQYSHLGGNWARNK
T2 sequence (P09693 23-182 limits assumed, chain 3 of 4): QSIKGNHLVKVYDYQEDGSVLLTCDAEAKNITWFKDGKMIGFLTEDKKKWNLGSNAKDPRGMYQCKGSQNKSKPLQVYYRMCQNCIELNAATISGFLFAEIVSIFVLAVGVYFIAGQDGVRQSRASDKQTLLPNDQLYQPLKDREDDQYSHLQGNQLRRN
T2 sequence (P20963 22-164 limits assumed, chain 4 of 4): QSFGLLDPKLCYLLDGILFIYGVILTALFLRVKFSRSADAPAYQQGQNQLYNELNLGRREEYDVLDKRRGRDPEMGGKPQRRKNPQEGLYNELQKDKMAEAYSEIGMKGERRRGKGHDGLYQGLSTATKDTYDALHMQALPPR

B1: human monoclonal antibody 1D5 (anti-IL1RAP) (antibody, V domains shown)
VH: QVQLVQSGAEVKKPGESLKISCKGSGYSFSSHWIGWVRQMPGKGLEWMGIIYPGDSDTRYSPSFQGQVTISADKSISTAYLQWSSLKASDTAMYYCARGELPGEAYYFDNWGQGTLVTVSS
VL: not shown
notes: also called clone ID5
Take B1: the equilibrium dissociation constant (Kd) is ~20 nM in experiment [1] and 21.2 nM in experiment [3]. The binding result with CD3 on T cells is “no binding”. Moreover, the EC50 in experiment [2] was 0.0049 µg/mL.

B2: D1A4 (antibody, V domains shown)
VH: PGPLVQSGAEVKKPGASVKVSCTTSGFPFNMYGFNWVRQAPGQGLEWMGWISAYNGRTNYAQKFQGRVTMTTDTSTSTSYVELESLTSDDTAVYYCARSGKQQLGSAQPLDSWGQGTLIIVSS
VL: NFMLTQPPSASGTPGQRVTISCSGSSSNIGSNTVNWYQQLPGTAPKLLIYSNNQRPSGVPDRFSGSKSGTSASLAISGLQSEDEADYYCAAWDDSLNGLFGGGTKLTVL
In the case of B2, the 50% effective concentration (EC50 (read off the curve)) in experiment [4] was ~0.1 µg/mL.

B3: 2E12 (antibody, V domains shown)
VH: GGGLVQPGGSLRLSCEASGFTFSRYWMHWVRQAPGKGLVWVSRIHTDGSSISYADSVKGRFTISRDNAKNTLYLQMNSLRAEDTAVYYCARDIGGGYSYGSVDYWGQGTLVTVSS
VL: QPVLTQSPSVSVAPGKTTRITCGGDNIGSKSVHWFQQKPGQAPVLVVFGGGDRPSGIPERFSGSNSGNTATLIISGVEGGDEADYYCQVWDGSTDHYIFGAGTMVTVL
B3: the half-maximal effective concentration (EC50 (read off the curve)) in experiment [4] is ~0.09 µg/mL.

For the origin of these results see patent publication US20200247893A1 (CITY OF HOPE, published 2020).
